Experiment [1] concerns the target Myc-GST融合蛋白 (Myc-GST fusion protein). In words: ELISA, Myc-GST coated at 5 μg/mL, HRP anti-His secondary antibody, heat-stability test at 90℃. In general terms: In an ELISA, binding on a coated surface is turned into a signal by an enzyme label.
The target is the same in experiment [2]. In words: ELISA, Myc-GST coated at 5 μg/mL, HRP anti-His secondary antibody, heat-stability test at 70℃.
Experiment [3] shares this target. In words: ELISA, Myc-GST coated at 5 μg/mL, HRP anti-His secondary antibody, heat-stability test at 80℃.

B1: 抗c-Myc标签单域重链抗体 (anti-c-Myc tag single-domain heavy-chain antibody) (VHH, not shown: small tags and cut ends)
VHH: QLQLVESGGGLVQPGGSLRLSCTVSGFPLDNYAIGWLRQAPGKEREGVACISNRGGRTDYVDSVRGRFTISRDNAKKTVYLQMHNLKPEDTGIYYCVAPEMFRPCKLSSEDVRHWGHGTQVTVSS
With B1, the values for the OD450 in experiment [1], in experiment [2] and in experiment [3] were 1.2 OD450, 1.5 OD450 and 1.3 OD450, respectively.

(Values after CN107081136A.)
